Molecular target: akt1_human AKT1 (UniProt P31749)
Sequence (P31749 whole entry): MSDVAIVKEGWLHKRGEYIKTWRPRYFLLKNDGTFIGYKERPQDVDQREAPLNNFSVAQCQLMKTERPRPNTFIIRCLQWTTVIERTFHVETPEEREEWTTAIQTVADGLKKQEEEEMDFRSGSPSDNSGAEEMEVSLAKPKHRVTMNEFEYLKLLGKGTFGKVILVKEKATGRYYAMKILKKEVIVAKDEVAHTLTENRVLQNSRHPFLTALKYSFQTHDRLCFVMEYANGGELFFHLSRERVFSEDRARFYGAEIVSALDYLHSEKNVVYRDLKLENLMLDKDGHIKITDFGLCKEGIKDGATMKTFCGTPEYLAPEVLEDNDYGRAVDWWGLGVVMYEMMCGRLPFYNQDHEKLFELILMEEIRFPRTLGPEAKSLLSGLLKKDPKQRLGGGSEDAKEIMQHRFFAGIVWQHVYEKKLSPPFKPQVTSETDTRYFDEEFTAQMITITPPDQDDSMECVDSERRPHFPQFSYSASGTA

| effect of a mutation on the interaction | Substance |
| --- | --- |
| disrupting interaction | THO complex subunit 4 (Homo sapiens) (from UniProt Q86V81) S34A |
| disrupting interaction | THO complex subunit 4 (Homo sapiens) (from UniProt Q86V81) T219A |

— IntAct's records for PubMed 18562279
